Laboratory results as given in paper PMC3813734, “Biochemical Characterization of a First Fungal Esterase from Rhizomucor miehei Showing High Efficiency of Ester Synthesis” (PLoS ONE, 2013).

Legend:
Test in all cases: purified protein
Format in all cases: biochemical, Rhizomucor miehei
Settings in all cases: 50 mM sodium phosphate pH 6.5, 45 °C, 5 min
purified protein [1] = substrate: CCCCCCCCCCCC(=O)Oc1ccc([N+](=O)[O-])cc1
purified protein [2] = substrate: CCCCCCCCCC(=O)Oc1ccc([N+](=O)[O-])cc1
purified protein [3] = substrate: CCCC(=O)Oc1ccc([N+](=O)[O-])cc1
purified protein [4] = substrate: CCCCCC(=O)Oc1ccc([N+](=O)[O-])cc1
purified protein [5] = substrate: CC(=O)Oc1ccc([N+](=O)[O-])cc1
purified protein [6] = substrate: CCCCCCCC(=O)Oc1ccc([N+](=O)[O-])cc1

B1: RmEstA (Rhizomucor miehei) (protein)
chain: MTVGNPPIHPVYAAAFAAMKERPPIHTLDLKVVRESSEARQLAANIKLPEVIEEDKVVESDGKTLKLTIVRPPGTEDQILPVLIFLHGGGFVFGSKYTHIKPVRDLTVKANVVTVFVDYSLSPEAKFPTAIEEIYAAILWVRENASSLNINAEALAVAGDSAGATLSAAVSIYAKEKGLSAAIKTQVLIYPATAVSHAKYESYKLFGNGDYILSAEDLKFFSNAYLPAPASELNDKLATLELATKADLEGLPPALLFTAESDVLRDEGEKYAQQLAEAGVDVAAVRVLGAVHGFITVPVETPQYRFTINTIVAHLRDIYAKYNA
notes: full-length ORF, 324 residues, no signal peptide predicted; C-terminal His tag (pET-30a(+), NdeI/XhoI); E. coli BL21(DE3); Ni-IDA; 34,989 Da calculated, 34 kDa SDS-PAGE
Purified protein [1]
  Km: 300 µM
  kcat/Km: 60 M⁻¹ s⁻¹
Purified protein [2]
  Km: 280 µM
  kcat/Km: 130 M⁻¹ s⁻¹
Purified protein [3]
  Km: 170 µM
  kcat/Km: 6900 M⁻¹ s⁻¹
Purified protein [4]
  Km: 120 µM
  kcat/Km: 8970 M⁻¹ s⁻¹
Purified protein [5]
  Km: 1000 µM
  kcat/Km: 370 M⁻¹ s⁻¹
Purified protein [6]
  Km: 820 µM
  kcat/Km: 510 M⁻¹ s⁻¹
